Data on 4 molecules can be found in patent US20160193299A1, “MODIFIED NUCLEOSIDE, NUCLEOTIDE, AND NUCLEIC ACID COMPOSITIONS” (Moderna Therapeutics, Inc., priority 2011, published 2016).

In one series the test system is neutrophil count. Nature of the series: Example 41 intravenous administration of lipoplexed G-CSF mRNA, neutrophil count. In kind it is in vivo. As to conditions: mice IV, 10% lipoplex, 50 ug at days 0, 2, 4; day 5. On the procedure:
Neutrophils were measured at days 1, 5 and 8. Controls included non-specific mammalian RNA or the formulation buffer alone (F.Buffer). The mice were bled at days 1, 5 and 8 to determine the effect of mRNA-encoded human G-CSF to increase neutrophil count. The dosing regimen is shown in Table 64 as are the resulting neutrophil counts (thousands/uL; K/uL).

The test system of the next series is Female BALB/C mice. Briefly: In vivo detection of innate immune response: human G-CSF and mouse IFN-alpha in serum after I.M. injection. As to conditions: for IFN-alpha expression: mouse IFN-alpha in serum, 200 ug/mouse mRNA (R848 75 ug); for IFN-alpha expression / G-CSF protein: I.M., 8 hours after dosing; for PC Ratio: Protein:Cytokine ratio, G-CSF / IFN-alpha in mouse serum; for G-CSF protein: human G-CSF in mouse serum, 200 ug/mouse mRNA (R848 75 ug) in 5% sucrose.

The nature of series [1]: Stability of modified RNA on storage (gel electrophoresis). In kind it is physicochemical. As to conditions: for stable out to (storage time): gel electrophoresis. On the procedure:
Stability experiments were conducted to obtain a better understanding of storage conditions to retain the integrity of modified RNA. […] After the mRNA had been stored for 0 hours, 2 hours, 6 hours, 24 hours, 48 hours, 5 days and 14 days, the mRNA was analyzed by gel electrophoresis using a Bio-Rad EXPERION′ system. The modified, unmodified and lipoplexed G-CSF mRNA was also stored in RNASTABLE® (Biomatrica, Inc. San Diego, Calif.) at 40° C. or water at −80° C. or 40° C. for 35 days before being analyzed by gel electrophoresis.
mRNA samples stored at 4° C., 25° C. and 37° C. were stored in 1× TE buffer or the formulation buffer (150 mM sodium chloride, 2 mM calcium chloride, 2 mM phosphate, 0.5 mM EDTA at a pH of 6.5). The mRNA stored at 4° C. was stable to at least 60 days in both the TE and formulation buffer. At 25° C. the mRNA in formulation buffer was stable out to 14 days and the TE buffer was stable out to at least 6 days. Storage of mRNA in the formulation buffer at 37° C. was stable to 6 days compared to the TE buffer which was stable only until 4 days.

Series [2] has as its system Human primary foreskin fibroblasts (BJ fibroblasts). Nature of the series: Innate immune response in BJ fibroblasts, repeat transfection: cytokine response. The class given is cell-based.
In series [3] the test system is female Sprague Dawley rats. Nature of the series: In vivo delivery of modified RNA: G-CSF protein in rat serum (I.M.). To be noted: I.M. 400 ug in 100 ul, 5% sucrose, 8 hours after injection. On the procedure: Protein production of modified mRNA was evaluated by delivering modified G-CSF mRNA or modified Factor IX mRNA to female Sprague Dawley rats (n=6). […] Blood was collected 8 hours after injection and the G-CSF protein level in serum was measured by ELISA.

A further series has as its system mice. Briefly: In vivo cytokine expression study (serum IFN-alpha). To be noted: mouse serum; I.M. 200 ug mRNA; after 8 hours.
The mark [4] stands for this setting: 250 ng transfected daily for 5 days, 6 hours.

Experimental for Female BALB/C mice: Blood is collected at 8 hours after dosing and using ELISA the protein levels of G-CSF and interferon-alpha (IFN-alpha) is determined by ELISA and are shown in Table 81.

B1: Unmodified G-CSF mRNA: human G-CSF mRNA SEQ ID NO: 6 having no modifications (natural NTPs) (nucleic acid, listed as Homo sapiens)
chain: GGGAAAUAAGAGAGAAAAGAAGAGUAAGAAGAAAUAUAAGAGCCACCAUGGCCGGUCCCGCGACCCAAAGCCCCAUGAAACUUAUGGCCCUGCAGUUGCUGCUUUGGCACUCGGCCCUCUGGACAGUCCAAGAAGCGACUCCUCUCGGACCUGCCUCAUCGUUGCCGCAGUCAUUCCUUUUGAAGUGUCUGGAGCAGGUGCGAAAGAUUCAGGGCGAUGGAGCCGCACUCCAAGAGAAGCUCUGCGCGACAUACAAACUUUGCCAUCCCGAGGAGCUCGUACUGCUCGGGCACAGCUUGGGGAUUCCCUGGGCUCCUCUCUCGUCCUGUCCGUCGCAGGCUUUGCAGUUGGCAGGGUGCCUUUCCCAGCUCCACUCCGGUUUGUUCUUGUAUCAGGGACUGCUGCAAGCCCUUGAGGGAAUCUCGCCAGAAUUGGGCCCGACGCUGGACACGUUGCAGCUCGACGUGGCGGAUUUCGCAACAACCAUCUGGCAGCAGAUGGAGGAACUGGGGAUGGCACCCGCGCUGCAGCCCACGCAGGGGGCAAUGCCGGCCUUUGCGUCCGCGUUUCAGCGCAGGGCGGGUGGAGUCCUCGUAGCGAGCCACCUUCAAUCAUUUUUGGAAGUCUCGUACCGGGUGCUGAGACAUCUUGCGCAGCCGUGAAGCGCUGCCUUCUGCGGGGCUUGCCUUCUGGCCAUGCCCUUCUUCUCUCCCUUGCACCUGUACCUCUUGGUCUUUGAAUAAAGCCUGAGUAGGAAG
Consider B1, for which, in the series on neutrophil count, the “increase in neutrophil count above control” value is on record as “no pharmacologic effect”. In the series with Female BALB/C mice, the IFN-alpha expression entry is “robust cytokine response”. In series [1], this molecule gave a freeze/thaw cycles tolerated of 12 cycles.

B2: G-CSF Gen 2: G-CSF mRNA SEQ ID NO: 6, Cap1, fully modified with 5-methylcytosine and N1-methylpseudouridine (nucleic acid, listed as Homo sapiens)
chain: B1 chain
modifications: Cap1, 5mC/N1-methylpseudouridine modified
Take B2: the IFN-beta in series [2] (setting [4]) worked out at 0 pg/mL; in series [2] (daily transfection, Day 1) it was 0 pg/mL; in series [2] (daily transfection, Day 2), 150 pg/mL; in series [2] (daily transfection, Day 3), 213 pg/mL; in series [2] (daily transfection, Day 4), 1400 pg/mL; in series [2] (daily transfection, Day 5), 350 pg/mL. Also, the IL-6 in series [2] (daily transfection, 6 hours) was 3337 pg/mL; in series [2] (daily transfection, Day 1) it was 3733 pg/mL; in series [2] (daily transfection, Day 2), 974 pg/mL; in series [2] (daily transfection, Day 3), 4972 pg/mL; in series [2] (daily transfection, Day 4), 4122 pg/mL; in series [2] (daily transfection, Day 5) it was 2906 pg/mL. The “PC Ratio” value in the series with Female BALB/C mice is 748. Further, the G-CSF protein in the series with Female BALB/C mice is 748.1 pg/mL; in series [3], 64.72 pg/mL. For the same molecule, the IFN-alpha expression entry is “no detectable IFN-alpha” in the series with Female BALB/C mice (listed as 5mc/N1pU modified mRNA) and 0 pg/mL in the series on Female BALB/C mice (listed as GCSF mRNA5mc/N1pU). The molecule further registered an IFN-alpha with mice of 0 pg/mL.

B3: G-CSF unmodified: unmodified G-CSF mRNA SEQ ID NO: 6, Cap1 (nucleic acid, listed as Homo sapiens)
chain: B1 chain
modifications: Cap1
For the molecule B3, the IFN-beta was 0 pg/mL in series [2] (setting [4]); 1363 pg/mL in series [2] (daily transfection, Day 1); 238 pg/mL in series [2] (daily transfection, Day 2); 225 pg/mL in series [2] (daily transfection, Day 3); 363 pg/mL in series [2] (daily transfection, Day 4); 225 pg/mL in series [2] (daily transfection, Day 5). Further, the IL-6 in series [2] (daily transfection, 6 hours) was 3596 pg/mL; in series [2] (daily transfection, Day 1), 15207 pg/mL; in series [2] (daily transfection, Day 2), 12415 pg/mL; in series [2] (daily transfection, Day 3), 5017 pg/mL; in series [2] (daily transfection, Day 4), 4267 pg/mL; in series [2] (daily transfection, Day 5), 3094 pg/mL. The “PC Ratio” value with Female BALB/C mice is listed as 9. In addition, the G-CSF protein in the series with Female BALB/C mice turned out to be 605.6 pg/mL. For the same molecule, the IFN-alpha expression in the series on Female BALB/C mice turned out to be 67.01 pg/mL. Further, the “stable out to (storage time)” value amounted to 48 h in series [1] (stored at 25 C), 6 h in series [1] (stored at 37 C) and 2 h in series [1] (stored at 50 C). Besides, in the series with mice, the IFN-alpha is 67.012 pg/mL.

B4: G-CSF Gen 1: G-CSF mRNA SEQ ID NO: 6, Cap1, fully modified with 5-methylcytosine and pseudouridine (nucleic acid, listed as Homo sapiens)
chain: B1 chain
modifications: Cap1, 5mC/pseudouridine modified
For B4, the IFN-beta in series [2] (setting [4]) was 0 pg/mL; in series [2] (daily transfection, Day 1) it was 38 pg/mL; in series [2] (daily transfection, Day 2) it was 1125 pg/mL; in series [2] (daily transfection, Day 3) it was 100 pg/mL; in series [2] (daily transfection, Day 4), 75 pg/mL; in series [2] (daily transfection, Day 5), 213 pg/mL. In addition, the IL-6 in series [2] (daily transfection, 6 hours) turned out to be 3396 pg/mL; in series [2] (daily transfection, Day 1), 3870 pg/mL; in series [2] (daily transfection, Day 2) it was 16341 pg/mL; in series [2] (daily transfection, Day 3) it was 25983 pg/mL; in series [2] (daily transfection, Day 4) it was 18922 pg/mL; in series [2] (daily transfection, Day 5), 15928 pg/mL. The “PC Ratio” value in the series with Female BALB/C mice is listed as 40. The G-CSF protein amounted to 356.5 pg/mL in the series on Female BALB/C mice and 19.37 pg/mL in series [3]. In addition, the figures for the IFN-alpha expression result with Female BALB/C mice (listed as 5mc/pU modified G-CSF mRNA) and with Female BALB/C mice (listed as GCSF mRNA 5mc/pU) were “low but detectable cytokine response” and 8.87 pg/mL, respectively. For the same molecule, the IFN-alpha with mice stood at 8.867 pg/mL.
